Source: article PMC5759053 (Glia, 2017)

Target: aquaporin-4 (AQP4) M1 isoform, expressed in HEK 293 cells (UniProt P55088-1 1-323)
Experiment: co-IP

Sequence of aquaporin-4 (AQP4) M1 isoform, expressed in HEK 293 cells (P55088 whole entry, canonical isoform): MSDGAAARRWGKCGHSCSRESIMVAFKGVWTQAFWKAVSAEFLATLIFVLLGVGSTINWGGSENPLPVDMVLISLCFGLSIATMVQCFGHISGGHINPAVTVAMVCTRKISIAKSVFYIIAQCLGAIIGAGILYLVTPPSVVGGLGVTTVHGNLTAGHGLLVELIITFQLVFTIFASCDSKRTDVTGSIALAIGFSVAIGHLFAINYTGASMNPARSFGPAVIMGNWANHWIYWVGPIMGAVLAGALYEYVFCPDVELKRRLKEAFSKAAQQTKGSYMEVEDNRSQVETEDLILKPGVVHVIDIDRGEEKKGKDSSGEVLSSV

fold TRPM4 co-precipitated with AQP4 in SUR1+ cells against SUR1- cells: 4 fold
B1: TRPM4, expressed in HEK 293 cells (natural protein)
chain: not shown
